Publication PMC12678314

Biological target: glutamate-1-semialdehyde aminotransferase (GSAAT), endogenous (Arabidopsis thaliana (endogenous in leaf extracts; the plant of the chloroplast extracts is not named)) (UniProt P42799)
Assay: non-reducing SDS-PAGE with immunoblot; wild-type Arabidopsis leaf extracts, untreated or pretreated with H2O2, diamide or DTT for 30 min at room temperature; non-reducing 8% SDS-PA gel (the text says non-denaturing PA gel); GSAAT-specific antibody

glutamate-1-semialdehyde aminotransferase (GSAAT), endogenous, sequence (P42799 39-474): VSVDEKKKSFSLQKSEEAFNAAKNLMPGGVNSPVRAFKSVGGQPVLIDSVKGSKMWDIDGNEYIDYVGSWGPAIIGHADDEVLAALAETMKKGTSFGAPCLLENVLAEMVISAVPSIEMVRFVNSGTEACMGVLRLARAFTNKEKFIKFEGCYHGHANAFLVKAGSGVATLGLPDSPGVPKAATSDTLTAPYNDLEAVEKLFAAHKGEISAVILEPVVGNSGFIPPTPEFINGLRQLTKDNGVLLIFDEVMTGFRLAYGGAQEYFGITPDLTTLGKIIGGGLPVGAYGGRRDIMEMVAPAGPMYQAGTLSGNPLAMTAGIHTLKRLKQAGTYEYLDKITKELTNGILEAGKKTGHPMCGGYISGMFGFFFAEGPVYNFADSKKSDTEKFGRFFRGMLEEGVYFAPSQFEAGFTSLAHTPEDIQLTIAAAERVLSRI

stoichiometry N: 2
Substance: glutamate-1-semialdehyde aminotransferase (GSAAT), endogenous (from UniProt P42799 39-474) (enzyme)
